Patent publication US6780971B2, “Compositions for inhibiting the aggregation pathway of α-synuclein” (Panacea Pharmaceuticals, Inc., priority 2000, dated 2004)
Values belong to the compound of their own block, whether it stands above or below them.

Experiments:
α-synuclein [1] = target: T1, α-synuclein (Homo sapiens, UniProt P37840); assay: Tyrosine fluorescence assay of metal binding to α-synuclein; details: wildtype α-synuclein
T1 construct: His-6 (cleaved yes); made in house; host or cells: bacteria (IPTG-induced; Pro-Ex His 6 vector)
Method: (§1) Because iron binds to other proteins that form aggregates and iron is known to accumulate in Parkinson's disease, iron might bind directly to α-synuclein. To confirm this hypothesis, the interaction of iron with α-synuclein was tested using tyrosine fluorescence as an indicator of iron binding. […] Fluorescence of tyrosine has been used to monitor binding of metals to β-amyloid [Garzon-Rodriguez W. et al., Bioorg. Med. Chem. Let., 9:2243-2248 (1999), which is hereby incorporated by reference]. A similar approach was taken to analyze binding of iron to α-synuclein. Tyrosine has a fluorescence emission spectrum that has a peak emission of 310 nm when excited at 280 nm, respectively (FIG. 2A). It was observed that binding of iron reduced the fluorescence of the tyrosines in α-synuclein. […] The Hill coefficient was 1.0 (R^2=1.0, P<0.0001), indicating one binding site for iron with no cooperativity (FIGS. 2A & B). α-Synuclein was also tested for binding to other metals, including CuCl2, ZnCl2 and MgCl2. Because the C-terminus of α-synuclein has a region with 7 glutamates and 4 aspartates, which together could chelate iron, we created a deletion construct lacking the last 27 amino acids on α-synuclein and analyzed binding of this construct.
To monitor the binding profiles of Fe(II) and Mg(II) to α-synuclein in vitro we used changes of tyrosine fluorescence. Tyrosine fluorescence is used as an indicator of changes in protein conformation or binding of metals. Excitation of tyrosine at 280 nm elicits fluorescence that peaks at 310 nm for monomeric tyrosine, and at 350-400 nm for tyrosinate or dimeric tyrosine. The fluorescence spectrum of α-synuclein yielded fluorescence peaks at 310 and 400 nm. The peak at 400 nm cannot be explained by the presence of dimeric tyrosine, due to dimerization of α-synuclein, because dimerization of α-synuclein decreases the fluorescence at 400 nm, and tends to eliminate the peak at 400 nm.

α-synuclein ΔC1-113 = target: T2, α-synuclein ΔC1-113 (Homo sapiens, UniProt P37840); assay: Tyrosine fluorescence assay of iron binding to C-terminal deletion construct
T2 construct: made in house
Method: as §1

A53T α-synuclein = target: T3, A53T α-synuclein (Homo sapiens, UniProt P37840, A53T); assay: Tyrosine fluorescence assay of metal binding to A53T α-synuclein
T3 construct: His-6 (cleaved yes); made in house; host or cells: bacteria (IPTG-induced; Pro-Ex His 6 vector)
From the text: We also examined how the A53T mutation in human α-synuclein affected binding of iron and magnesium. […] Previous studies have shown that A53T mutation changes the conformation of α-synuclein by increasing its helical content (Polymeropoulos et al., Science, 276:2045-7(1997)). These conformational changes might also reduce binding of magnesium to α-synuclein.

[2] = tested on: BE-M17 cells over-expressing α-synuclein; assay: Iron-mediated toxicity in BE-M17 cell lines, MTT assay; format: cell-based; details: for reduction of LD50 by α-synuclein over-expression: 48 hrs
Method: To determine if the conditions that produce α-synuclein aggregation also produce toxicity, the vulnerability of each cell line to iron and/or hydrogen peroxide-mediated toxicity was tested. Each cell line (untransfected, wild type, A53T and A30P a-synuclein) was treated with varying doses of FeCl2, H2O2 or FeCl2+H2O2 and the amount of toxicity was determined by MTT assay. […] Over-expression of A30P or wild type α-synuclein constructs reduced the LD50 values by ˜50%, although the amount of toxicity seen in A30P-expressing cells in response to low levels of iron was generally greater than toxicity seen with wildtype α-synuclein (FIG. 1A). To confirm that over-expression of α-synuclein increased the vulnerability of the neuroblastoma cells to iron, iron-induced toxicity was tested using a LDH assay (FIG. 1B). The LDH assay confirmed that over-expression of the α-synuclein constructs increases iron-induced toxicity (FIG. 1B).

[3] = tested on: BE-M17 neuroblastoma cells; assay: Iron-induced α-synuclein aggregation in BE-M17 cell lines (fractionation, immunoblot); format: cell-based, human; details: for formation of large α-synuclein aggregates migrating in the stacking gel: cells over-expressing A30P or wild type α-synuclein, 48 hrs, 10 mM FeCl2 and/or 5-500 μM dopamine
Method: Immunoblotting: Cells were harvested with SDS lysis solution (2% SDS, 10 mM Tris, pH 7.4, 2 mM β-glycerol phosphate, 1 μM AEBSF). The amount of protein was determined using the BCA assay (Pierce), […] per lane was run on 14% SDS polyacrylamide gels and transferred to nitrocellulose (200 mAmp, 12 hrs). The nitrocellulose was then incubated 1 hr in 5% milk/PBS, washed, incubated overnight in 1° antibody, washed, then incubated 3 hrs in peroxidase coupled 2° antibody and developed with chemiluminescent reagent (NEN).
Cell fractionation: For cell fractionation the cells were harvested in buffer containing 20 mM Tris, pH 7.4, 2 mM EDTA, 0.25 M sucrose, and 20 μg/mL protease inhibitor cocktail (Sigma). The cell lysate was sonicated and centrifuged at 100,000×g at 4° C. for 1 hr.
To test whether A53T and A30P mutations in α-synuclein increase the tendency of α-synuclein to aggregate in neurons, α-synuclein aggregation was determined in human BE-M17 neuroblastoma cells that were stably transfected with wild type, A53T or A30P α-synuclein. Each cell line was treated for 48 hours with freshly prepared FeCl2 (1 or 10 mM), then harvested, homogenized and fractionated into membrane and cytoplasmic components. The membrane (5 μg/lane) and cytoplasmic (20 μg/lane) components were immunoblotted with monoclonal anti-α-synuclein antibody.
To determine the effect of increasing the duration of exposure to iron on aggregation of α-synuclein at lower doses of iron, BE-M17 cells which are over-expressing A53T or wildtype α-synuclein were exposed to FeCl2 for 4 days. Under these conditions, doses as low as 0.3 μM FeCl2 produced detectable aggregation of α-synuclein in cells expressing A53T α-synuclein.
Neurol. 57:793-796 (2000)]. If so, adding free radical generators, such as hydrogen peroxide or dopamine, along with the iron might increase the amount of α-synuclein aggregation. To further determine that oxidation enhanced iron-induced aggregation of α-synuclein, BE-M17 cells over-expressing A30P or wildtype α-synuclein were treated for 48 hrs with 10 mM FeCl2 plus varying concentrations of dopamine (0.5, 50, and 500 μM).

[4] = target: T4, C-terminal (approx. amino acids 113-140) of α-synuclein (Homo sapiens, UniProt P37840); assay: Phage display selection for binding to C-terminal portion of α-synuclein; details: for binding to the C-terminal portion of α-synuclein: phage display
T4 construct: The peptides were selected using the α-synuclein 121-131 and 61-87 peptides as the bait
From the text: (§2) Such peptides can be found, for instance, by using phage display to select for those phage expressing a peptide on their surface that binds to α-synuclein, and determining what the peptide is. The inhibitory effect of that peptide, or any peptide for that matter, can also be tested to determine its usefulness as an agent for treating a Lewy body disease or synucleinopathy by using assays such as those disclosed herein or as disclosed in U.S. Pat. No. 6,184,351, which is incorporated herein by reference. Such peptides have been selected for their ability to bind to the C-terminal (approx. amino acids 113-140), and the NAC portion (approx. amino acids 61-87) of α-synuclein, because this region is thought to be involved with the aggregation process. Several peptides that bind to the C-terminal portion are as follows (all peptides are given in […] order): (1) WRQTRKD (SEQ ID NO: 1); (2) HYAKNPI (SEQ ID NO: 2); (3) ATINKSL (SEQ ID NO: 3); (4) RRRGMAI (SEQ ID NO: 4); (5) THRLPSR (SEQ ID NO: 5); and (6) TKHGPRK (SEQ ID NO: 6). Several peptides that bind to the NAC portion are: (1) SLKRLPK (SEQ ID NO: 7); (2) RLRGRNQ (SEQ ID NO: 8); (3) WPFHHHR (SEQ ID NO: 9); (4) HLYHHKT (SEQ ID NO: 10); (5) THIHHPS (SEQ ID NO: 11); and (6) MMMMMRL (SEQ ID NO: 12). […] Most preferred is the peptide SLKRLPK (SEQ ID NO: 7).
(§3) Phage display: Incubating a library of phage that is all identical except for a sequence of 7 amino acids that are presented on the coat and randomly differ from phage to phage. Phage which express a sequence that specifically binds to α-synuclein are then isolated, cloned, and the DNA sequenced to determined the amino acid sequence. The 7 amino acid peptide is then synthesized and tested directly.
(§4) Phage display (phage display kit was from New England Biolabs (Beverly, Mass.)) was used to specifically select for peptides that can inhibit iron binding. […] The peptides were selected using the α-synuclein 121-131 and 61-87 peptides as the bait. One such peptide has the sequence SLKRLPK (SEQ ID NO: 7).

[5] = target: T5, NAC portion (approx. amino acids 61-87) of α-synuclein (Homo sapiens, UniProt P37840); assay: Phage display selection for binding to NAC portion of α-synuclein; details: for binding to the NAC portion of α-synuclein: phage display; for relative binding properties: NAC portion binders
T5 construct: The peptides were selected using the α-synuclein 121-131 and 61-87 peptides as the bait
From the text: as §2, §3, §4

α-synuclein [6] = target: T1, α-synuclein; assay: Phage ELISA binding to α-synuclein absorbed to plastic well
Method: Bound phage was detected by adding peroxidase coupled anti-phage antibody, incubating 1 hr, washing 5 times and detecting signal using the peroxidase substrate ABTS. Bound phage produces a dark green signal that is measured as optical density with a spectrophotometer. Using these conditions, the phage containing the SLKRLPK (SEQ ID NO: 7) peptide gave OD's of 0.882, 0.844, and 0.480 at dilutions of 1:10, 1:100, and 1:1000, respectively.

binding to the C-terminal portion of α-synuclein [4]: bind
Compound: ATINKSL (listed as Homo sapiens)

relative binding properties [5]: stronger binding properties
binding to the NAC portion of α-synuclein [5]: bind
Compound: MMMMMRL (listed as Homo sapiens)

binding to the NAC portion of α-synuclein [5]: bind
Compound: RLRGRNQ (listed as Homo sapiens)

binding to the C-terminal portion of α-synuclein [4]: bind
Compound: RRRGMAI (listed as Homo sapiens)

OD of bound phage (α-synuclein [6]; phage dilution 1:10): 0.882
OD of bound phage (α-synuclein [6]; phage dilution 1:100): 0.844
OD of bound phage (α-synuclein [6]; phage dilution 1:1000): 0.480
binding of phage to α-synuclein by ELISA (α-synuclein [6]; phage expressing the sequence): particularly strong binding
relative binding properties [5]: stronger binding properties
binding to the NAC portion of α-synuclein [5]: bind
Compound: SLKRLPK (listed as Homo sapiens)

relative binding properties [5]: stronger binding properties
binding to the NAC portion of α-synuclein [5]: bind
Compound: THIHHPS (listed as Homo sapiens)

binding to the C-terminal portion of α-synuclein [4]: bind
Compound: TKHGPRK (listed as Homo sapiens)

The next lines start with the compound.

Compound: [Cl][Fe][Cl] [FeCl2]
Hill coefficient of iron binding curve (α-synuclein [1]): 1.0
IC50 (α-synuclein [1]; excitation 280 nm, sigmoidal fit, read-out: IC50 of quenching of α-synuclein tyrosine fluorescence (iron binding)): 173 µM
IC50 (α-synuclein ΔC1-113; construct lacking the last 27 amino acids): 726 µM
reduction in iron binding versus wildtype (α-synuclein ΔC1-113; ΔC1-113 versus wildtype α-synuclein): > 4 fold
effect of A53T mutation on binding to α-synuclein (A53T α-synuclein): did not change the apparent affinity
increase in vulnerability to induced toxicity in cells over-expressing α-synuclein [2]: ≤ 4 fold
reduction of LD50 by α-synuclein over-expression ([2]; A30P or wild type α-synuclein over-expressing cells versus untransfected): ~50%
reduction of LD50 by α-synuclein over-expression ([2]; A53T α-synuclein over-expressing cells versus untransfected): over 75%
α-synuclein aggregate formation ([3]; A53T-expressing cell line, 1 or 10 mM, 48 hours, membrane fraction): induced dose-dependent formation of heterogeneous high molecular weight α-synuclein aggregates
lowest dose producing detectable aggregation of α-synuclein ([3]; cells expressing A53T α-synuclein, 4 days): 0.3 µM
formation of large α-synuclein aggregates migrating in the stacking gel [3]: did not induce any aggregation
α-synuclein aggregate formation ([3]; untransfected, wildtype and A30P cell lines, 48 hr): did not induce α-synuclein aggregates

Compound: NCCc1ccc(O)c(O)c1 [dopamine]
formation of large α-synuclein aggregates migrating in the stacking gel [3]: did not induce formation of large α-synuclein aggregates

Compound: HLYHHKT (listed as Homo sapiens)
binding to the NAC portion of α-synuclein [5]: bind

Compound: HYAKNPI (listed as Homo sapiens)
binding to the C-terminal portion of α-synuclein [4]: bind

Compound: THRLPSR (listed as Homo sapiens)
relative binding properties ([4]; C-terminal portion binder): stronger binding properties
binding to the C-terminal portion of α-synuclein [4]: bind

Compound: WPFHHHR (listed as Homo sapiens)
binding to the NAC portion of α-synuclein [5]: bind

Compound: WRQTRKD (listed as Homo sapiens)
binding to the C-terminal portion of α-synuclein [4]: bind
